Consider two molecules from US20230312725A1 (JIANGSU HENGRUI PHARMACEUTICALS, published 2023).

The target in the assay is human Claudin18.2 (human). Kind of assay: cell-based or functional assay.

B1: IMAB-362 (antibody, human IgG1, kappa, V domains shown)
VH: QVQLQQPGAELVRPGASVKLSCKASGYTFTSYWINWVKQRPGQGLEWIGNIYPSDSYTNYNQKFKDKATLTVDKSSSTAYMQLSSPTSEDSAVYYCTRSWRGNSFDYWGQGTTLTVSS
VL: DIVMTQSPSSLTVTAGEKVTMSCKSSQSLLNSGNQKNYLTWYQQKPGQPPKLLIYWASTRESGVPDRFTGSGSGTDFTLTISSVQAEDLAVYYCQNDYSYPFTFGSGTKLEIKR
In the case of B1, the “ADCC effect, IC50 (ng/ml), NUGC4 cells with high Claudin18.2 expression” value came out at 133 ng/mL; the “ADCC effect, IC50 (ng/ml), NUGC4 cells with low Claudin18.2 expression” value amounted to 183 ng/mL; the “ADCC effect, IC50 (ng/ml), NUGC4 cells with moderate Claudin18.2 expression” value was 210 ng/mL.

B2: h1901-11 (antibody, human IgG1, kappa, V domains shown)
VH: EVQLVESGGGLVQPGGSLRLSCAASGFTFSDYGIHWVRQAPGKGLEWIAYISRGSSTIYYADTVKGRFTISRDNAKNSLYLQMTSLRAEDTAVYYCARGGYDTRNAMDYWGQGTTVTVSS
VL: DIVMTQSPDSLAVSLGERATISCKSSQSLLNSGNQKNYLAWYQQKPGQPPKLLIYGASTRASGVPDRFSGSGSGTDFTLTISSLQAEDVAIYHCQNDLYYPLTFGQGTKLEIKR
For the molecule B2, the “ADCC effect, IC50 (ng/ml), NUGC4 cells with high Claudin18.2 expression” value came out at 26.2 ng/mL; the “ADCC effect, IC50 (ng/ml), NUGC4 cells with low Claudin18.2 expression” value was 22.4 ng/mL; the “ADCC effect, IC50 (ng/ml), NUGC4 cells with moderate Claudin18.2 expression” value was determined as 15.3 ng/mL.
